Data set [1] has as its target T1, Bar (broad-specificity amino acid racemase) (Pseudomonas putida, UniProt I6LNY0).
T1 construct: homodimer; first 25 residues (signal peptide) removed by auto-cleavage
T1 sequence (I6LNY0 26-409): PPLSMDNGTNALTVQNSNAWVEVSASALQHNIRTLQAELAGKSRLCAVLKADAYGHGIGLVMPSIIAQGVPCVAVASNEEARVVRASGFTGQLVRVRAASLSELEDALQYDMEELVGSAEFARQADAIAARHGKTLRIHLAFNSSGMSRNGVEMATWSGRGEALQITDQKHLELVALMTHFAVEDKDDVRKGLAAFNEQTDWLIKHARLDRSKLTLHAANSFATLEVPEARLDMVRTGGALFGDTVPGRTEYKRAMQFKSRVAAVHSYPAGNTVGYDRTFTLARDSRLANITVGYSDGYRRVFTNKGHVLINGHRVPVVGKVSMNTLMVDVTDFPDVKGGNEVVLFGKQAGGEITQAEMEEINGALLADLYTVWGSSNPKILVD
Put plainly: X-ray crystallography, […] Å. In kind it is binding. The conditions noted are these: covalent, internal aldimine with Lys75; pH 8.5.

Another data set deals with T2, NCCCC[C@H](N)C(=O)O.
T2 construct: homodimer; first 25 residues (signal peptide) removed by auto-cleavage
Put plainly: steady-state racemization, chiral HPLC. The format is biochemical, Pseudomonas putida. The conditions noted are these: 100 mM CHES-NaOH pH 9.0, 30 µM PLP, 50°C. The text has this: steady-state racemization, chiral HPLC on Bar (broad-specificity amino acid racemase)

For data set [2], the target named is T1, Bar (broad-specificity amino acid racemase). The data set is described as follows: X-ray crystallography, […] Å. The format is binding. The conditions noted are these: co-crystallized with 4 mM L-lysine, pH 9.0; covalent external aldimine with PLP.
Substrate in data set [3]: N=C(N)NCCC[C@H](N)C(=O)O
Put plainly: steady-state racemization, chiral HPLC. In kind it is biochemical, Proteus mirabilis. The conditions noted are these: 100 mM CHES-NaOH pH 9.0, 30 µM PLP, 50°C. The text has this:
(§1) steady-state racemization, chiral HPLC on Lyr (lysine racemase)

Substrate in data set [4]: NCCCC[C@H](N)C(=O)O
Put plainly: steady-state racemization, chiral HPLC. In kind it is biochemical, Proteus mirabilis. The conditions noted are these: 100 mM CHES-NaOH pH 9.0, 30 µM PLP, 50°C.
From the text: as §1

Data set [5] deals with the molecule itself. Put plainly: crystal structure; Lyr (2.5 mg/ml), sitting-drop vapor diffusion at 20°C, 0.1 M sodium acetate pH 4.6, 0.05 M lithium chloride, 29% PEG 8000; space group C222(1), one molecule per asymmetric unit, dimer by a crystallographic two-fold axis; 1.74 Å.
Data set [6] concerns the molecule itself. The data set is described as follows: crystal structure; apo Bar (4.7 mg/ml in 10% glycerol), sitting-drop vapor diffusion at 20°C, 0.1 M Tris-HCl pH 8.5, 2.0 M ammonium sulfate; space group C2, two molecules per asymmetric unit; 2.45 Å.

Five molecules from paper PMC3485190, “Crystal Structures of Lysine-Preferred Racemases, the Non-Antibiotic Selectable Markers for Transgenic Plants” (PLoS ONE, 2012) can be followed below.

By Km is commonly meant the concentration of substrate that gives half-maximal velocity. The term kcat denotes the number of substrate molecules converted per active site and unit of time at saturation. The term kcat/Km denotes the second-order rate constant that governs catalysis at low substrate concentration. For orientation: stoichiometry N means a count of units in the complex or per binding partner.

As for `Cc1ncc(COP(=O)(O)O)c(C=O)c1O` [PLP], in data set [1], the “X-ray crystallography, 2.45 Å” value is “fit with an aldimine bond between the Lys75 Nζ and the PLP C4A”.
With “Bar (broad-specificity amino acid racemase) (Pseudomonas putida; A393Y)”, in the data set with NCCCC[C@H](N)C(=O)O, the Km was found to be 33.9 ± 3.5 mM, the kcat worked out at 24.3 ± 2.18 s⁻¹ and the kcat/Km worked out at 715 M⁻¹ s⁻¹.
`NCCCC[C@H](N)C(=O)O` [L-Lys]: the “X-ray crystallography, 3.10 Å” value in data set [2] is on record as “The complex-Bar structure was established (Figure 7A, B) by co-crystallizing Bar with L-lysine”.

B1: Lysine racemase (Lyr) from Proteus mirabilis BCRC10725 (enzyme)
chain: CQQPVNYNPPATQVAQVQPAIVNNSWIEISRSALDFNVKKVQSLLGKQSSLCAVLKGDAYGHDLSLVAPIMIENNVKCIGVTNNQELKEVRDLGFKGRLMRVRNATEQEMAQATNYNVEELIGDLDMAKRLDAIAKQQNKVIPIHLALNSGGMSRNGLEVDNKSGLEKAKQISQLANLKVVGIMSHYPEEDANKVREDLARFKQQSQQVLEVMGLERNNVTLHMANTFATITVPESWLDMVRVGGIFYGDTIASTDYKRVMTFKSNIASINYYPKGNTVGYDRTYTLKRDSVLANIPVGYADGYRRVFSNAGHALIAGQRVPVLGKTSMNTVIVDITSLNNIKPGDEVVFFGKQGNSEITAEEIEDISGALFTEMSILWGATNQRVLVD
notes: also called wild-type Lyr
On to B1, for which, in data set [3], the Km came to 14.9 ± 1.0 mM, the catalytic constant (kcat) worked out at 10.8 ± 0.583 s⁻¹ and the kcat/Km was 727 M⁻¹ s⁻¹. Moreover, in data set [4], the Km stood at 21.8 ± 0.5 mM, the kcat turned out to be 55.4 ± 1.13 s⁻¹ and the kcat/Km was found to be 2540 M⁻¹ s⁻¹. Besides, the “stoichiometry N” value in data set [5] worked out at 2.

B2: Broad-specificity amino acid racemase (Bar) from Pseudomonas putida DSM84 (enzyme, UniProt I6LNY0 26-409, looked up)
chain: T1 sequence (I6LNY0 26-409)
modifications: PLP bound to Lys75 by an internal aldimine bond (apo crystal); in the crystal with L-lysine PLP forms the external aldimine with the substrate
notes: Broad-specificity amino acid racemase (Bar, E.C. 5.1.1.10), Pseudomonas putida DSM84, gene bar amplified from chromosomal DNA into pET21a; the first 25 residues contained the signal peptide and were removed by auto-cleavage; Head-to-tail homodimer in the crystal (two molecules in the asymmetric unit); also called wild-type Bar; complex-Bar (with L-lysine)
In the case of B2, the “stoichiometry N” value in data set [6] came to 2.
